# In patent US20230176070A1:
# Positions count from the first letter of the chain named.
# B1: NbPDZ P10 (VHH)
# VHH: DVQLVESGGGLVQAGGSLRLSCTASGRTFSTYTMAWFRQAPGKEREFVAAITWSGTYYADSVKGRFTISRDNAKNTMYLQMNSLKPEDTAVYICAAVIGSTVDSYSPSDPLEYDYWGQGTQVTVSE
# B2: P5 (VHH)
# VHH: DVQLVESGGGLVQAGDSLRLSCAASGITFRWYTMAWFRQAPGKERDFVATINWSGSDTNYADSVKGRFTISRDNAKNTVTLQMNSLQPEDTAVYYCAGVPGTSLSGETDPRDYDYWGQGTQVTVSE
# B3: P2 (VHH)
# VHH: DVQLVESGGGLVQAGGSLRLSCAASGHTFSSYTMGWFHQAPGKEREFVAEISGTGGNTGYADSVKGRFTISRDNAKNTVYLQMNSLKPEDTAVYYCAAVIGSPTDSSDYRSSLDYDYWGQGTQVTVSE
# B4: P3 (VHH)
# VHH: B3 VHH with H27R, S52G
# B5: P4 (VHH)
# VHH: HVQLVESGGGLVQAGGSLRLSCAAAGRTSSDYAMGWFRQAPGKEREFVSAINWSGISTYYADSVKGRFTISRDNAKNTVHLQMNSLKPEDTAVYYCAAEKLESLRNWHDPLMYDYWGQGTQVTVSE
# B6: H31 (VHH)
# VHH: QVQLVESGGGLVQPGGSLRLSCTPSGFRLEDYPIAWFRQAPGKEREGLSCITSGDGRTYYEESVKGRFTISRDNAQNKVYLQMNKLTPEDTAVYHCATVPSDNLCGYLHRRPFASWGQGTQVTVSS
# B7: H39 (VHH)
# VHH: QVQLVESGGGLVQAGVSLRLSCAASERTFSSYIMGWFRQAPGKEREFIAAISWSGGNTDYAGSVQGRFTISRDNAQNTVYLQMNSLEPEDTAVYYCAADATHSWSYGSRWYDRNYNYWGQGTQVTVSS
# B8: H32 (VHH)
# VHH: HVQLVESGGGLVQAGGSLRLSCAASDTIDNYARAWFRQAPGKEREFVAAITWTFGTPYYTDSVKGRFTISRDDAKNTVYLQMNSLKPEDTAVYYCAASLYLPVRTASGGYRLDTDRPQYWGQGTQVTVSS
# B9: H10 (VHH)
# VHH: DVQLVESGGGLVQAGGSLRLSCRASGLPFGPYTMGWFRQTPGQEREFVAAITWSSMNTNYADSVKGRFTISRDSAKNTVYLQMNTLKPDDTAVYYCAADDRAVPMLGDFEDYIYWGQGTQVTVSS
# B10: H13 (VHH)
# VHH: HVQLVESGGGLVQAGGSLRLSCAASGRTFSTYHMGWFRQAPGKAREFVAAITGSGGITYYADSVKGRFTISRDNAKNTVYLQMNSLKPEDTAVYYCAADTRAYGLVPSTTSSRYNYWGQGTQVTVSS
# B11: H37 (VHH)
# VHH: QVQLVESGGGLVQAGGSLRLSCAASGLTFSNYALGWFRRAPGKERDFVAAISYSGGSTDYADSVKGRFTISRDNAKNTVYLQMNSLKPEDTAVYYCAAAYLGWGTARTAYEYWGQGTQVTVSS
# B12: H38 (VHH)
# VHH: B11 VHH with Q1H, G26E, L34M, D46G, N77K, L101M, T108S
# B13: H23 (VHH)
# VHH: DVQLVESGGGLVQAGGSLTLSCAASGRTFSSSTMGWFRRAPGKEREFVAAISGSARTTDYADSVKGRFTISRDNAKNTVYLQMISLKPEDTAIYYCARKRVVDVTTSNYELRYDYWGQGTQVTVSS
# B14: H44 (VHH)
# VHH: EVQLVESGGGLAQAGGSLRLSCAASGGTFSNSCMGWFRQAPGMEREFVAIIRSTGHTTYADSVEGRFTVSRDIAKNTVYLEMNSLKPEDTAVYSCAAGASDYGCYHTSGISYWGQGTQVTVSS
# B15: H40 (VHH)
# VHH: EVQLVESGGGLVQAGASLRLSCAASGGTFSSYIMGWFRQAPGKEREFVAAISWSGRSTHYADSVKGRFAISRDNDRVYLQMNSLKPEDTAVYSCAADPNYTWRDDRYYREEGYTYWGQGTQVTVSS
# B16: H33 (VHH)
# VHH: HVQLVESGGGLVQAGGSLRLSCAASGRTLSSYDMGWFRQPPGKEREFVAAITRHDFNTFYRDSVKGRFTISRDNAKNTVYLQMNSLKSEDTAVYFCAARLDPIFASNSEYAPLYDYWGQGTQVTVSS
# B17: H34 (VHH)
# VHH: B16 VHH with H1Q, Q39K, P40A, F56Y, F59Y, E109A, A111S, P112N
# B18: H42 (VHH)
# VHH: HVQLVESGGGLVQAGGSLRLSCAASGLTFSNYAMGWFRQAPGKEREFVVAISWSGANTYYSDSVKGRFTASRDNAKKTVYLQMNSLKPEDTAVYYCAADYRGLGYSTAHEYDYWGQGTQVTVSS
# B19: G69 (VHH)
# VHH: QVQLVESGGGLVQAGGSLRLSCVDSGRTFSSNTMGWFRQAPGKDRDFVAAINRSGVITNYADSVKGRFTISRDNAKNTVYLQLNSLKPEDTAVYYCAARAGGWPSQIPVEYDRWGQGTQVTVSS
# B20: G58 (VHH)
# VHH: EVQLVESGGGLVQAGGSLRLSCAGSGDTFSRYTLGWFRQAPGKEREFVAGISWSGGSTSYANSVKGRFTISRDNAKNTMYLQMNSLKPEDTAVYTCAAPGLPGTVVVGASDFYVYWGQGTQVTVSS
# B21: G77 (VHH)
# VHH: QVQLVESGGGLVQAGGSLRLSCTASRSTFRVNPAGWYRQAPGKERELVARITSGGSTNYADSVKGRFTISRDNAKNTVYLQMNSLKPEDTAVYYCNVPYYMEDGYEHDAWGQGTQVTVSS
# B22: G53 (VHH)
# VHH: HVQLVESGGGLVQAGGSLRLSCVASGFTYSTYTMGWFRQAPGKEREIVAAKNWSGARIYYTESVKGRFTISRDSGSNTMYLQMDSLKPEDTAVYYCAARLTWTDTTTPTTYPYWGQGTQVTVSS
# B23: G68 (VHH)
# VHH: EVQLVESGGGLVQAGGSLRLSCTASGSIFSVNVMDWYRQAPGKQREFVATITGSGATNYADSVKGRFTISRGSAKNTVYLQMNSLKPDDTAVYYCHNADYREDGYEYDNWGQGTQVTVSS
# B24: G73 (VHH)
# VHH: EVQLVESGGGLVQAGGSLRLSCAASGRTFSDDAMAWFRQAPGKEREFVAAISWHPENTFYADSVKGRFTISRDKTKNTEYLQMNSLKPEDTAVYYCAAGPRLEIGDYAQYKYWGQGTQVTVSS
# B25: G65 (VHH)
# VHH: QVQLVESGGGLVQAGGSLRLSCATSGRTFSTYALGWFRQRPGKEREFVATIHWSDGRTLYADSVKGRFTLSRDNAQNTVYLQMNSLKPEDTAIYYCAASIYRIGSYDVSTSQGYDYWGQGTQVTVSS
# B26: G66 (VHH)
# VHH: B25 VHH with L34M, A61T, I93V, S99A, I100T, D115N
# B27: G67 (VHH)
# VHH: HVQLVESGGGLVQAGGSLRLSCVASGHTVSNYAMAWFRQAPGKEREFVAGISWRATLTYYRDSVKGRFTISRDNAKNTVYLQMSSLKPEDTAVYFCASDRTPYVSRGTSLVEYDYWGQGTQVTVSS
# B28: G70 (VHH)
# VHH: QVQLVESGGGLVQAGGSLRLSCAASGATFSINAIGWYRQAPGKQRELVAVIKSGNSINYADSVKGRFTISRDHAKNTVYLQMNNLKPEDTAVYYCHADQPPETGWGTWNDLWGQGTQVTVSS
# B29: G54 (VHH)
# VHH: QVQLVESGGGLVKPGESLKLSCVASGETLSSYIMGWFRQAPGKEREFVAAVSWSGNQQDYADSVKGRFTISRDNAEKTVDLQMNSLNPEDTAVYYCAGDQIGFWSSRTQAHEYEYWGQGTQVTVSS
# B30: G64 (VHH)
# VHH: HVQLVESGGGLVQAGGSLRLSCKVSGTTFSNSAIGWYRQAPGNRRELVATINYGGSTNYADSGKGRFTISKDNAKNTVYLQMNSLKPEDTAVYYCKTTEWREDGYEYDVWGQGTQVTVSS
# B31: G52 (VHH)
# VHH: EVQLVESGGGLVQAGGSLRLSCAASGSTFSSKPIGWYRQAPGKGRDLVAAIGGGSSTFYVDSVKGRFTMSRDNAKNTVALQMNSLKPEDTAVYYCNEYLGPKVLPIGSWGQGTQVTVSS
# Target: GST fusion PDZ mutant protein (R46E:K48D) (mammalian (so in the source)) (UniProt P57105)
# Assay: indirect ELISA, PDZ R46E:K48D coated
row,Binder,Mutant ELISA affinity (LogIC50 (oD450nm))
1,B1,3.83
2,B2,0
3,B3,4.35
4,B4,4.78
5,B5,4.58

# Target: human serum albumin (human) (UniProt P02768)
# Sequence (P02768 25-609 limits assumed): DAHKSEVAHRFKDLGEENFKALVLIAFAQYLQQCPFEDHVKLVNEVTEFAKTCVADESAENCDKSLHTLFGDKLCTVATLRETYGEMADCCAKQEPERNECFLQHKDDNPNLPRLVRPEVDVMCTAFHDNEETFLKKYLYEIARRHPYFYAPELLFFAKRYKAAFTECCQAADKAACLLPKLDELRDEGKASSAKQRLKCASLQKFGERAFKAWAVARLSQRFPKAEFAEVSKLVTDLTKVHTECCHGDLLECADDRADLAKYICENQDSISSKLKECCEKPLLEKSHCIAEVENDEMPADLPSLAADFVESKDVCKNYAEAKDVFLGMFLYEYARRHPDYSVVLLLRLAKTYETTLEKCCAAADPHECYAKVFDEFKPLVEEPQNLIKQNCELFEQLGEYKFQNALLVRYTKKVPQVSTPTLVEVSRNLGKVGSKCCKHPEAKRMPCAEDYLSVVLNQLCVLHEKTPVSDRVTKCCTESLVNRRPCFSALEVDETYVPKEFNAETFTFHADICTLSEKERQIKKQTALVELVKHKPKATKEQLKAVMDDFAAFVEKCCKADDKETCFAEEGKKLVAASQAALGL
# Assay: indirect ELISA, HSA coated
row,Binder,ELISA affinity (LogIC50 (oD450nm))
1,B6,1.07
2,B7,5.2
3,B8,5.33
4,B9,1.46
5,B10,1.96
6,B11,1.49
7,B12,2.44
8,B13,1.62
9,B14,5.62
10,B15,3.16
11,B16,5.03
12,B17,5.07
13,B18,4.92

# Target: glutathione S-transferase [GST: P08515]
# Sequence (P08515 whole entry): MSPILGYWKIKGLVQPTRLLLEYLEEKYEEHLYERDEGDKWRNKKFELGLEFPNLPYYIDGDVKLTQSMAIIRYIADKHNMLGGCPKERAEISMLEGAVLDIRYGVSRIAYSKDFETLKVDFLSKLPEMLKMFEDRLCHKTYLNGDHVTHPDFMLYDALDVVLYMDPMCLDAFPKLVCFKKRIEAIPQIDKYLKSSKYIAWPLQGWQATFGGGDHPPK
# Assay: indirect ELISA, GST coated
row,Binder,ELISA affinity (LogIC50 (oD450nm))
1,B19,3.69
2,B20,1.54
3,B21,6.01
4,B22,5.37
5,B23,1.07
6,B24,0.955
7,B25,3.97
8,B26,4.29
9,B27,3.6
10,B28,1.75
11,B29,1.54
12,B30,5.68
13,B31,1

# Target: T1, PDZ domain of mitochondrial outer membrane protein 25 (mammalian (so in the source)) (UniProt P57105)
# T1 sequence (looked up): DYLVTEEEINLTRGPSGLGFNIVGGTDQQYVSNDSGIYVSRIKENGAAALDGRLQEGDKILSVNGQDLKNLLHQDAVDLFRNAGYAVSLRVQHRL
# Assay: indirect ELISA, wild type PDZ coated
row,Binder,WT ELISA affinity (LogIC50 (oD450nm))
1,B2,4.7
2,B3,5.44
3,B4,5.26
4,B5,4.42

# Target: GST fusion PDZ mutant protein (R46E:K48D) (mammalian (so in the source)) (UniProt P57105)
# Assay: ELISA, wild type PDZ against PDZ R46E:K48D
row,Binder,Affinity fold change [fold]
1,B1,23.5
2,B2,50600
3,B3,12.1
4,B4,3.04
5,B5,1
